Experimental data published in patent US20260069689A1 (Regeneron, published 2026).

Biological target: SARS-COV-2 RBD extracellular domain expressed with a C-terminal myc-myc-hexahistidine tag (SARS-COV-2 RBD-mmH) (SARS-CoV-2)
Assay: SPR Biacore, mAb captured on anti-hFc, RBD-mmH analyte, 37 C

| Binder | Kd | koff | kon | t½ |
| --- | --- | --- | --- | --- |
| mAb15162 (antibody, V domains shown) VH: EVQLVETGGGLIQPGGSLRLSCAASEFIVSRNYMSWVRQAPGKGLEWVSLIYSGGSTYYADSVKGRFTISRDNSKNILYLQMNSLRAEDTAVYYCARDRGGISDYWGQGTLVTVSS VL: DIQMTQSPSSLSASVGDRVTITCQASQDINKYLNWFQQKPGKAPKLLIYDASNLETGVPSRFSGSGSGTDFTFTISSLQPEDIATYYCQQYDNLPRTFGQGTKLEIKR | 29.2 nM | 0.00299 s⁻¹ | 103000 M⁻¹ s⁻¹ | 3.9 min |
| mAb14232 (antibody, V domains shown) VH: QITLKESGPTLVKPTQTLTLTCTFSGFSLSASGVGVGWIRQPPGKALEWLALIYWDDDKRYSPSLKSRLTITKDTSKNQVVLTMTNMDPVDTATYYCAQHKVATIFDYWGQGTLVTVSS VL: QSALTQPPSASGSPGQSVTISCTATSSDVGNYNYVSWYQQHPGKAPKLMIYEVTKRPSGVPDRFSGSKSGNTASLTVSGLQAEDEADYYCSSYAGSWGVFGGGTKLTVLG | 7.92 nM | 0.0372 s⁻¹ | 4.69e+06 M⁻¹ s⁻¹ | 0.3 min |
| mAb15160 (antibody, V domains shown) VH: EVQLVESGGGLVQPGGSLRLSCSASGFTFSRYAMYWVRQAPGKGLEYVSAISSDGGSTYDADSVKGRFTISRANSKNTLYLQMSSLRAEDTAVYYCVKGLRELLYYYYGMDVWGQGTTVTVSS VL: DIQMTQSPSSLSASVGDRVTITCRAGQSISSFLNWYQQKPGKAPKLLIYAASSLQSGVPSRFSGSGSGTDFTLTISSLQPEDFATYYCQQSYITPFTFGPGTKVDIKR | 7.79 nM | 0.00194 s⁻¹ | 250000 M⁻¹ s⁻¹ | 5.9 min |
| mAb15150 (antibody, V domains shown) VH: EVQLVETGGGLIQPGGSLRLSCAAPGFIVSSNYMSWVRQAPGKGLEWVSLLYPGGSTYYADSVKGRFTISRDNSKNTLYLQMNSLRADDTAVYYCARVLPIVEDHFDYWGQGTLVTVSS VL: DIQLTQSPSFLSASVGDRVTITCRASQGMSSYLAWYQKKPGKAPKLLIYGATILQSGVPSRFSGSGSGTEFTLTISSLQPEDFATYYCQQLNSDPLYMYTFGQGTKLEIKR | 0.158 nM | 7.84e-05 s⁻¹ | 493000 M⁻¹ s⁻¹ | 147 min |
| mAb15161 (antibody, V domains shown) VH: EVQLVESGGGLVQPGGSLRLSCAASGFTFSSYEMNWVRQAPGKGLEWVSYISSSGSILYYADSVKGRFTASRDNAKNSLYLQMNSLRAEDTGVYYCARREYQLLRPFEFWGQGTLVTVSS VL: not shown | 3.29 nM | 0.000866 s⁻¹ | 263000 M⁻¹ s⁻¹ | 13.3 min |
| mAb14234 (antibody, V domains shown) VH: QVQLVESGGGVVQPGRSLRLSCAASGFTFSSYGIHWVRQAPGKGLEWVAIIWYDGSEKYYADSVKGRFTISRDNSKNTLFLQMNSLEAEDTAVYYCARGPDLLTGYYNYFYYGMDVWGQGTTVTVSS VL: QSVLTQPPSVSGAPGQRVTISCTGSSSNIGIGYDVHWYQQLPGTVPKLLIYGNTNRPSGVPDRFSGSKSGTSASLAITGLQAEDEADYYCQSYDSSLSSYVFGTGTKVTVLG | 22.3 nM | 0.0119 s⁻¹ | 534000 M⁻¹ s⁻¹ | 1 min |
| mAb15159 (antibody, V domains shown) VH: EVQLVESGGGLVQPGGSLRLSCAASGITVSSNYMTWVRQAPGKGLEWVSLIYSGGSTFYADSVRGRFTISRDNSKNTLYLQMNSLRAEDTAVYYCARDLVVYGMDVWGQGTTVTVSS VL: DIQLTQSPSSLSASVGDRVTITCRASQGISSYLAWYQQKPGKAPKLLIYAASTLQSGVPSRFSGSGSGTDFTLTISSLQPEDFATYYCQHLNSDPHTFGQGTKLEIKR | 1.21 nM | 0.000176 s⁻¹ | 146000 M⁻¹ s⁻¹ | 65.6 min |
| mAb15170 (antibody, V domains shown) VH: EVQLVESGGGLVQPGGSLRLSCAATGITVSSNYMSWVRQAPGKGLEWVSLIYSGGSTFYADSVKGRFTISRHNSKNTLYLQMSSLRAEDTAVYYCARDLVDFGMDVWGQGTTVTVSS VL: DIQLTQSPSSLSASVGDRVTITCRASQGISNYLAWYQQKPGKAPKLLIYAASTLQSGVPSRFSGSGSGTDFTLTISSLQPEDFGTYYCQQLNSDSPTFGQGTKVEIKR | 0.297 nM | 8.36e-05 s⁻¹ | 283000 M⁻¹ s⁻¹ | 138 min |
| mAb15158 (antibody, V domains shown) VH: EVQLVESGGGLVQPGGSLRLSCAASGFSFSSNWMSWVRQAPGKGLEWVGNINQDGSEKYYVDSVEGRFTISRDNAKKSLYLQMNSLRAEDTAVYYCARDLGVLWFGDFVDWGQGALVTVSS VL: DIQMTQSPSSLSASVGDRVTITCRASQAISNSLAWYQQKPGKAPKLLLYAASTLESGVPSRFSGSGSGTDYTLTISSLQPEDFATYYCLQYYGSPRTFGQGTKVEIKR | 1.65 nM | 0.000207 s⁻¹ | 126000 M⁻¹ s⁻¹ | 55.7 min |
| mAb15156 (antibody, V domains shown) VH: QLQLQESGPGLVKSSETLSLTCTVSASITGSTYYWGWIRQPPGKGLEWIGSIYYSGTTYYKASLKSRVTISVDTSKNQFSLKLTSVTVADTAVYYCVSHLLGNYHKYGMDVWGQGTTVTVSS VL: not shown | 14.4 nM | 0.00535 s⁻¹ | 373000 M⁻¹ s⁻¹ | 2.2 min |
| mAb14280 (antibody, V domains shown) VH: QVQLVQSGAEVKKPGASVRVSCKASGYTFTGNYIHWVRQAPGQGLEWMAWINPNSGGKNYAQKFQGRVTLTRDTSVNTAYMELSRLRSDDTAMYYCARDVNYNILTGPGGLWGQGTLVTVSS VL: QSALTQPPSASGSPGQSVTISCTGTSSDVGGYNFVSWYQQHPGKAPKLMIYEVSKRPSGVPDRFSGSKSGNTASLTVSGLQAEDEADYYCSSYAGSNNFVFGTGTKVTVLG | 16.2 nM | 0.0248 s⁻¹ | 1.53e+06 M⁻¹ s⁻¹ | 0.5 min |
| mAb15163 (antibody, V domains shown) VH: EVQLVETGGGLIQPGESLRLSCAASGFIVSTNYMNWVRQAPGKGLEWVSVIYRGGSTYYADSVKGRFTISRDNSKNTLFLQMNSLRAEDTAVYYCARGHEDFDYDTPASGAFDIWGQGTMVTVSS VL: QSALTQPPSASGSPGQSVTISCTGTSSDVGGHNYVSWYQQHPGKAPKVMIYEVSKRPSGVPDRFSGSKSGNTASLTVSGLQAEDEADYYCSSYAGSNKFVFGTGTKVTVLG | 1.78 nM | 0.000387 s⁻¹ | 218000 M⁻¹ s⁻¹ | 29.9 min |
| mAb15151 (antibody, V domains shown) VH: QVQLVESGGGVVQPGRSLRLSCAASGFVFNSYGMHWVRQAPGKGLEWVAVLWYEGSKNYYADSVKGRFTISRDNSKNTLYLQMNSLRAEDTAVYYCARHGSGSFFGYYLDYWGQGTLVTVSS VL: DIQMTQSPSSLSASVGDRVTITCRASHNINDFLNWYQQKPGKAPRLLIYAASSLQSGVPSRFSGSGSGTDFTLTISSLQPEDFATYYCQESYTTPPTFGQGTKLEIKR | 24.6 nM | 0.00442 s⁻¹ | 180000 M⁻¹ s⁻¹ | 2.6 min |
| mAb14285 (antibody, V domains shown) VH: QVQLVQSGAEVKKPGASVKVSCKASGYTFTGYFIHWVRQAPGQGLEWMGWISPISGGTNYAQKFQGRVTVTRDTSITTAYMELSRLTSDDTAVYHCAREGGTWKGDFDYWGQGTLVTVSS VL: QSALTQPASVSGSPGQSITISCTGTSSDVESYNLVSWYQQHPGKAPKLMIYEGSKRPSGVSNRFSGSKSGNTASLTISGLQAEDEADYYCSSYAGSSTWVFGGGTKLTVLG | 13.1 nM | 0.0274 s⁻¹ | 2.09e+06 M⁻¹ s⁻¹ | 0.4 min |
| mAb15164 (antibody, V domains shown) VH: EVQLVESGGGLVQPGGSLRLSCAASGFAVSSNYMTWVRQAPGKGLEWVATIYSGDSTYYADSVKGRFTISRHNSKNTLSLQMNSLRADDTAIYYCARLSGVLSGTYNGAFDIWGQGTMVTVSS VL: QSALTQPASVSGSPGQSITISCTGTSSDFGNYNIVSWYQQHPGQAPKVMIYEGNKRPSGVSNRFSGSKSGHTASLTISGLQAEDEADYYCSSYAGSSTWVFGGGTKLTVLG | 6.33 nM | 0.00179 s⁻¹ | 283000 M⁻¹ s⁻¹ | 6.5 min |
| mAb15166 (antibody, V domains shown) VH: EVQLVESGGGLVQPGGSLRLSCAASGFTVTSNYMSWVRQAPGKGLEWVSAIYSGESTYYADSVKGRFTISRDSSKNTLYLQMNSLRVEDTAVYYCASIHDYSNYVGGFDPWGQGTLVTVSS VL: QSALTQPASVSGSPGQSITISCTGPSSDFGSYNLVSWYQQHPGKAPKLMIYEGTKRPSGVSNRFSGSKSGNTASLTISGLQAEDEADYYCSSYAGSSTWVFGGGTKLTVLG | 95.3 nM | 0.0334 s⁻¹ | 350000 M⁻¹ s⁻¹ | 0.3 min |
| mAb15165 (antibody, V domains shown) VH: EVQLVESGGGLVQPGGSLRLSCAASGFTVSSNYMSWVRQAPGKGLEWVSAIYSGDSTYYADSVKGRFTISKDNSKNTLYLQMNSLRGEDTAVYYCARLGGALQAYDGAFDYWGQGTLATVSS VL: QSALTQPASVSGSPGQSITISCTGTSSDFGSYNLVSWYQQHPGKAPKLMIYEGNKRPSGVSIRFSGSKSGNTASLTISGLQAEDEADYYCSSYAGSSTWVFGGGTKLTVLG | 3.1 nM | 0.00147 s⁻¹ | 475000 M⁻¹ s⁻¹ | 7.9 min |
| mAb15157 (antibody, V domains shown) VH: EVQLVESGGALVQPGGSLRLSCAASGFPFTIYAMTWVRQAPGKGLEWVSVITGSGDSTYYADSVKGRFTISRDNSKNTLYLQMNSLRAEDTAVYYCVKTGEGFFYYYYGMDVWGQGTTVTVSS VL: QSVLTQPPSVSAAPGQKVTISCSGSSSNIGNSYISWYQQLPGTAPKLLIYVNNKRPSGIPDRFSGSKSGTSATLGITGLQTGDEADYYCGTWDSSLSAGVFGSGTKVTVLG | 11.6 nM | 0.00399 s⁻¹ | 344000 M⁻¹ s⁻¹ | 2.9 min |
| mAb14292 (antibody, V domains shown) VH: EVQLVESGGGLVQPGGSLRLSCVASGFAFSTYEMNWVRQAPGKGLEWVSYISSSGSTIYYADSVKGRLTISRDNVKNSLYLQMNSLRVEDTAIYYCARDAIRNNDILTDPATFDPWGQGTLVTVSS VL: not shown | 60.7 nM | 0.0218 s⁻¹ | 359000 M⁻¹ s⁻¹ | 0.5 min |
